A short description of the data set: soluble on expression in E. coli; label from the status in PepcDB or PDB records.
As for “MPMRLQKSTMCGLYAVLELAANPDRQVSAGDIADKYDISLNHLAKVLRALVRARLIESVRGPGGGYRFAGNPKRVTLLDIIALFEDTGLDLQEAASDDHEESRALHKVLRDIDEIAMTTLRSVSITSLLKVIDTERRKTERGPNGASARHSSAGRA”, the “soluble on expression in E. coli” value is reported as “not soluble”.
Consider “MGSDKIHHHHHHMEWLEQLLGKEWSLVPAGGVTGDAYIAQNGQQKLFLKRNTSPFLAVLSAEGIVPKLLWTRRVTNGDVISAQKWLPGQKLEPEDMKLERVAKLLKKIHSSKALVQMIQRLGKQPLHAQELLQQLQLVLRGDIRDEETIQQGLQYLMDSLKDIEYNEFVVCHCDVNHNNWLLSDEDELFLIDWDGAVIADPALDLGMLLYWYIPRQEWSEWLGYYDIEMDESLLKRMRWYVIAQTILSIQWHTTKKQQAEAEYWHQYLQQLLASE”, for which the “soluble on expression in E. coli” value was “not soluble”.
Then “VTDDLEPTAPAAAAPEPEVKGIDLARRALEEARAAAKASGKSVGQGRRSGTGVRALRARRRRGWSGPGPDDRDPQPFGALTNAIAKQRGWSPKVSEGTVLGRWVQVVGEDIAAHAEPTGLRDGILSVSAESTAWATQLRMMQSQILAKIAAAVGDGVVKSLRITGPTAPSWRKGERHIRGRGPRDTYG”, with “not soluble”; and “MGSDKIHHHHHHMVKLKDGFTGERALVLPRIIVDKMEEDPLTSMLHITDIGYYPKAKHHFRERKEPINQYVFIYCIDGAGSYRIGDQEYTVSANQYFILPAGVPHSYASNKSTPWTIYWIHFKGILAPFYAKDANRPMDIQSEQHSRISTRINLFEEIFNTLKNGYSNENLRYAFSMFHFYLGTLRYVQQYRNAGTNEAEDEGIVNVAIHYMKENMEKHLSLEEISTQIGYSPSHFSMLFKKQTGHSPLTYFNLLKMQQACLLLDTTDMKINQICYKIGIEDTYYFSRLFSKIMGMSPREYRKSKKG”, with “not soluble”; and “MGNYLLRKLSCLGENQKKPKKGNPDEERKRQEMTTFERKLQDQDKKSQEVSSTSNQENENGSGSEEVCYTVINHIPHQRSSLSSNDDGYENIDSLTRKVRQFRERSETEYALLRTSVSRPCSCTHEHDYEVVFPH”, with “soluble”.
Turning to “MSFETKPNYLLLTNPDTPLSVCTSPYYSPSGKTASIPSSEASKPEGTNGQWSHLPTGATYVTDEFSSEFQIQNGSTAAQSGNANNYADPLSHRRYFNNVNGYNHHQFYDTASQASVSSPATSVTSSLSPPDSLSNGHTTQRHHIGKAISFCKVCGDKASGYHYGVTSCEGCKGFFRRSIQRKIDYRCLKQQVCEIKRESRNRCQYCRFKKCLDSGMSKDSVRQMKFRNAMRDDKSPDSVFVPEISTLERQEEVDAVYEAVLRAHTTFSFYTDIKIRSIVARPFNVRINEDSKMNRLNAWQIYAHEIDVDIKEVVNFVKEIPKFNFINGNDKAVLLRKNAFPLYLLRIVRGMSNRGLMLRDGRLIDFKSLQLLYGSLADEMLAFANHIITIGCTDGDIALFIVLILCQPLTTEQQFSTNFKSQLQLLEMFDFYKKVLFQKMTCRIDGCDTYKQLMKCIHELNRLNELHKQQLNILRENLSFLNLPPLVVEMFQLSTLPLPVNHNNQENQYTPAPEHQSPQPQQPTPNQQQTPVHC”, the “soluble on expression in E. coli” value is given as “not soluble”.
Take “GSHMASFNGVSEAELLTKTLPDILTFNLDIVIIGINPGLMAAYKGHHYPGPGNHFWKCLFMSGLSEVQLNHMDDHTLPGKYGIGFTNMVERTTPGSKDLSSKEFREGGRILVQKLQKYQPRIAVFNGKCIYEIFSKEVFGVKVKNLEFGLQPHKIPDTETLCYVMPSSSARCAQFPRAQDKVHYYIKLKDLRDQLKGIERNMDV”: the “soluble on expression in E. coli” value is “soluble”.
For the sequence “MTTQVKPIRSFLFVPGNKESMLDKAALAKADALILDLEDSVPPAEKLAARELVARKIPALIAQGQRIWVRINRSAHIYDLDDILAVAQPGVEGVVISKPWGPEDVYMASSMIAEAETRANLPLGSIGLIPLLETARSMQLCYEIAQMPRVVGIVGATAKNADMGRALKFVWTPEGRETEYLKSRVVMAARAAGKQAIGGIWQQIKDLEGLARSSAFDRQLGMSGELALHPMQVETINRTYTPTAEDVAYYQGMIDALDAAQAQGRASVMYDGEHIDIAHVKTAHEVIALARAFDAAAALEHHHHHH”, the “soluble on expression in E. coli” value was “soluble”.
As for “MGSDKIHHHHHHMYEENIYIKNSEYEFDNNLKQLASYLNIPVSIVRPYKEDLTLYQYKKGQVIYHSTDQIKFVYFLVNGCILHESSNITGDNYLRLSKDENIFPMNFIFNETPAPYEICTALTDCKILTLPKDLLEYLCRKHNEIFESLFKKLNETIQFQVEYIMALRANSAKERIERILQILCLSIGDDNGEFYELKQIMTVQLISNLSGLNRKTTGEIIRELKTENIIYQDKRNWIIKK”, the entry is “not soluble”; as for “MGSDKIHHHHHHMDHQIEDLLEHWLPLADDAWVLAVITHVQGSAYRKPGAMMLFHEFGQGAGILSGGCLEADLRRYAQNAMQTKQVMCVTYDASDESDASYRLGCGGIVDIMLIPLLKENHDLGLIDLVHAFRHGQSGYYQLPLVASGTDARQYQARFYSADAAPFPISDFAKSKIVKQESNDTLVIPLRPRFHIGIFGGGIDAKPIAAIAHSLGWQVTVIDGRTAYARAADFPHAHIIKQAVGELAANVIAQLDCAVVINHNLGLDAAVLKAIQPYSLDYVALLGPAHRRDKVLAMAGLSAQSFSGVFSAPAGLALGGELPSAIALSILAQCHGVLHGATLKQLDEIMG”, “not soluble”; as for “GKQNTSAIEALAPHSVVFTTAGGSSPEFTSSEISEQQAERWKDSTPLGVSQTRIESDQNANTTAVMGLPEGTPLPDSVGGFIEQGALLPAELADFLHVRA”, “not soluble”.
Turning to “MMSGAVEPVSVIFPQSTSSGVEVLYQQFSFGRYFNQIAAGVITGLIQAHQHSGHGPLRILEVGGGTGGTTAWLLPELRNVADVRYCFTDISALFSRRAEDKFSEYDFVEYAQFDLQKPASEQGFQAGHYDLIVAANVIHATQHVGQTLHNLRPLLKPGGALLMREITRPMRLFDFVFGPLVLPLHDEQARGGELFLSTAHWQQQCLESGFERLDWLP”, the “soluble on expression in E. coli” value is listed as “not soluble”.
“MSLKAPGALRLLCFSDTHEKHLKIPPHQIVPCDICICAGDFTKFGDPAEVKKFKDWFIKIPARYRVLIAGNHETTFDVERYGRMVTQMRKIKSDLPRETAKSIVQTDGIIYLENESVEIEGLKIYGSPQTHYWEFWAFYYPDKDGPKVWAKIPHDTDILVCHTCPRSTIDLMRGQHVGCKSLANAIKEVQPSLVIYGHLHEGYGVAKIGKSVIANVSLTNLARKLANRPMIFDVSFKTPEIPRPLPKQPEETEIPKDEGHHHHHH”: the “soluble on expression in E. coli” value is recorded as “soluble”.
Then “MDAKVAFSPHSDANGRLDEIGADIDTAQSSVLFSLAFLGQMTRGAIGPALGRALERPEVHVMGIADAEVRAGNLGLNVLTPDNRRRVVRAAALTGNVPPPFLTEPSGLAGVDGNQRGTRMHHKFVVLDFDKPTARVYLGSYNFSNPADDENGENLVVVRDRTVATSYMIEALRMYDHYVFRVASEASDGPARPLEHHHHHH”, with “not soluble”; and “MFRTQSRYLVRSILANHCVLPSTRMAVSPILNQSIKFYSSKDNATDKSQEKEQPKSILNDDMLARAGFEDVDPKEETSNSEEQATKQTGRKRKRAQTSKDLQRERYANMFYLSALIFGVAGVGYMSRDWDSEKEQEEMDGKNVENGYTPKLMYERLSKRLGSLFTFFSEPAFENLLPPPPPEQYRRPLTLVVTLDDFLIHSNWDTQHGWRTGKRPGLDYFLGYLSQYYEIVVFSSNSQIYSDKTVNKLDPYHAYISYALFREACRYKDGKLIKDLSLLNRDLGKTVMIDVDEDSAALQPENSIIVKKWEGQPDEYLISLIPFLEYLATQPVKDVRPILNSYKDKSNIVAEFAERENKLREQWRKDHGGNNGKPNAGNFIAKLLGIPVPEPKMPLDIIREHGQLQYEHFQKYLQENAHKFLEEEQKLKDEFGKVTLNKLITEGAPNAEEIAKVQQQRALEEAQKQQEGHK”, with “not soluble”.
Then “GMSESPTAGRASLAPLREFITGLSALLDEQPGEARILREGGALLARLVARDDWLPDAFAQPHPEYYQQMLLHCDSAERFSIVSFVWGPGQRTPIHDHTVWGLIGMLRGAEYSQPFVLDGSGRPVLHGEPTRLEPGHVEAVSPTVGDIHRVHNAYDDRVSISIHVYGANIGGVRRSVYTEAGERKPFISGYSNPYLPNPWDRSKDSAAS”, with “soluble”; and “MSLILVTGAAGFIGSHLCEQLLMNEKVSVVGVDGHIDSSLCKVKERNVRNLLKHPRFTLLKQDLLTIDLEPLVDQVDVIYHLSGIPGVRSSWGTDFKKYVTHNIVATQQLLEACRRHSLEKFIYISTSSVYGQKNGKVGEKASPTPLSPYGVSKLTGEHLCNVYYRNFSIPTVILRYFTVYGPRQRQDMAFHRFIKAIIDNQPIPIFGDGNQSRDFTYIDDCIAATCAVLHADVIGETINIGGKERATVLQIISMLESIFQKDAKLQFLEKPFGEPMSTWADISKAEKLLRYSPNVPLLQGIEKEVDEGHHHHHH”, with “soluble”; and “MDLKGGESMVDWKLMQEIIEAPGVSGYEHLGIRDIVVDVLKEVADEVKVDKLGNVIAHFKGSSPRIMVAAHMDKIGVMVNHIDKDGYLHIVPIGGVLPETLVAQRIRFFTEKGERYGVVGVLPPHLRRGQEDKGSKIDWDQIVVDVGASSKEEAEEMGFRVGTVGEFAPNFTRLNEHRFATPYLDDRICLYAMIEAARQLGDHEADIYIVGSVQEEVGLRGARVASYAINPEVGIAMDVTFAKQPHDKGKIVPELGKGPVMDVGPNINPKLRAFADEVAKKYEIPLQVEPSPRPTGTDANVMQINREGVATAVLSIPIRYMHSQVELADARDVDNTIKLAKALLEELKPMDFTP”, with “soluble”.
With “MGSSHHHHHHGKTIFVIVPTNEEQVAFLEALAKQDELNFDWQNPPTEPGQPVVILIPSDMVEWFLEMLKAKGIPFTVYVEEGGSENLYFQGGGGGGAASLGDFGQEYQAIMESAGKGFGMLYRDMTAPPASYQWECVEDLSLQYSVAYASLTEPYTVNVLTSMITVTRTESTPGVSYNLIGIACTYDGNCGDLKRGNLLTFSLRKDLIIIVTGSVLSNGITNFLPVSYYVVQLASSCSSANIANVTRPFSVGASSVWMQLWQ”, the “soluble on expression in E. coli” value is recorded as “not soluble”.
As for “NGSQQQILSNISSMGTNTIDVRPGKGFGDRRSGRVKTLTADDAKSLESLPFVDSVTPSLSNSLTVRYANQDATASVEGVGEDYFRVRGYEIAKGQFWDEESVNSLAQEAVIDDNTRKEMFADRNP”, the “soluble on expression in E. coli” value was “not soluble”.
For “MNILLCCSAGMSTSLLVTKMEAAAKARGLEGKIWAVSGDAVKTNIDQADVLLLGPQVRYMLSSMKTLADERNVGIDVINPMHYGMMNGEAVLDHALTLKK”, the “soluble on expression in E. coli” value was “not soluble”.
Turning to “MTDVTSPVVDEKPCFGANPQIFKLGLGKQHILAHDIGQGSQCRNLPTCRCEGLDLHFWRKMCKNCGCRMDEHDVVLPNEFDHAQIVIGRLFGAREHFEKVLTKPGMYKPNEQNETKENNMMSTRSQPTAVYNYKMASSDSESERGGSNNKENVQYAWAPLPDKNLVSRYMKALPEDERPLVGSKGEQNRKSRLQFQLPLYDCNVEDARFVEEKDVKTLQNFVENVRNNVIGVGRVVEIGKDSDNYGDNENTNEFEKSMTAALKGLKIGETDCKDCNEMMETGDIGVECHHHSTTDTYHPNCFRCETCRQLLVDNIYFFYKNKYYCGRHYADQLYPRCAGCDELIFANEYTFAEEKSWHFDHFACYKCDFKLGGSRYMTRDENPFCLDCYLKHFAKTCDTCQSKIGPDEKRLNYNETHWHAEERCFQCVQCKMNLIGKKFMLKNHKLLCSSQCKANYNSANPDDQL”, the “soluble on expression in E. coli” value is “not soluble”.

The values above are taken from the DeepSol protein solubility set.
